The assay has as its target T1, C9orf72 (full-length) (human, UniProt Q96LT7 1-481).
T1 construct: C9orf72, human, the longer isoform (481 AA); open reading frame commercially synthesized with codon optimization; also called Fl-C9orf72; C9orf72 Fl; source: Sf-9 insect cells, co-expressed with SMCR8 or SMCR8N-C, purified (Strep-Tactin, size-exclusion chromatography)
T1 sequence (looked up): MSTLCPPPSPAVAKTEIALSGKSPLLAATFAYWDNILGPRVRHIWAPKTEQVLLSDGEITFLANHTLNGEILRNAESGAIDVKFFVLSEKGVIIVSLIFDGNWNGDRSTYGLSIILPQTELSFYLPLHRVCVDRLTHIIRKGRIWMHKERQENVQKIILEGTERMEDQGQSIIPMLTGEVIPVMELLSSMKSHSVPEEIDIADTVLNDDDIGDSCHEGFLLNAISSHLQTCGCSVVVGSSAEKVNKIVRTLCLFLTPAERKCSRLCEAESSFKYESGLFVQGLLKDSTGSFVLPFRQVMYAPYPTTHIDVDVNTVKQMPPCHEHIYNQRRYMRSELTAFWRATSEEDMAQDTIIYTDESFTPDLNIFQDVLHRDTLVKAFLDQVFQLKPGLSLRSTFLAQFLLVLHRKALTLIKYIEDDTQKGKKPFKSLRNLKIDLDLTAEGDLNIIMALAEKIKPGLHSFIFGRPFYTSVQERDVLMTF
The assay is described as follows: SEC; limited proteolysis: full-length C9orf72-SMCR8-WDR41 complex (0.93 mg) with trypsin (4.6 ug) 20 minutes on ice, then size-exclusion chromatography; bands of the peak fraction identified by tandem mass spectrometry. The conditions noted are these: both partners purified.

B1: N-terminal domain of SMCR8 (SMCR8N), tryptic fragment (domain or fragment, human, UniProt Q8TEV9 1-439, looked up)
chain: MISAPDVVAFTKEEEYEEEPYNEPALPEEYSVPLFPFASQGANPWSKLSGAKFSRDFILISEFSEQVGPQPLLTIPNDTKVFGTFDLNYFSLRIMSVDYQASFVGHPPGSAYPKLNFVEDSKVVLGDSKEGAFAYVHHLTLYDLEARGFVRPFCMAYISADQHKIMQQFQELSAEFSRASECLKTGNRKAFAGELEKKLKDLDYTRTVLHTETEIQKKANDKGFYSSQAIEKANELASVEKSIIEHQDLLKQIRSYPHRKLKGHDLCPGEMEHIQDQASQASTTSNPDESADTDLYTCRPAYTPKLIKAKSTKCFDKKLKTLEELCDTEYFTQTLAQLSHIEHMFRGDLCYLLTSQIDRALLKQQHITNFLFEDFVEVDDRMVEKQESIPSKPSQDRPPSSSLEECPIPKVLISVGSYKSSVESVLIKMEQELGDEEYK
notes: SMCR8, human, residues 1 to 439, product of limited proteolysis identified by mass spectrometry; source: Sf-9 insect cells; purified full-length C9orf72-SMCR8-WDR41 complex cut with trypsin
As to B1, the binding result is “binds”.

B2: carboxyl-terminal domain of SMCR8 (SMCR8C), tryptic fragment (domain or fragment, human, UniProt Q8TEV9 620-937, looked up)
chain: RQKDQGFRVDFSVENANPSSRDNSCEGFPAYELDPSHLLASRDISKTSLDNYSDTTSYVSSVASTSSDRIPSAYPAGLSSDRHKKRAGQNALKFIRQYPFAHPAIYSLLSGRTLVVLGEDEAIVRKLVTALAIFVPSYGCYAKPVKHWASSPLHIMDFQKWKLIGLQRVASPAGAGTLHALSRYSRYTSILDLDNKTLRCPLYRGTLVPRLADHRTQIKRGSTYYLHVQSMLTQLCSKAFLYTFCHHLHLPTHDKETEELVASRQMSFLKLTLGLVNEDVRVVQYLAELLKLHYMQESPGTSHPMLRFDYVPSFLYKI
notes: SMCR8, human, residues 620 to 937, product of limited proteolysis identified by mass spectrometry; source: Sf-9 insect cells; purified full-length C9orf72-SMCR8-WDR41 complex cut with trypsin
As for B2, the binding result is recorded as “binds”.

The values above are taken from paper PMC8336837, “Structure of the human C9orf72-SMCR8 complex reveals a multivalent protein interaction architecture” (PLoS Biology, 2021).
